The source of these data is patent publication US20220317121A1.

Holding throughout (assay): line blot with purified recombinant antigen
The target of experiment [1] is H8-TJP1[human](aa1-575) (human) (UniProt Q07157).
In the next experiment the target is H8-CD2BP2[human] (human) (UniProt O95400).
In experiment [2] the target is NVL[human]-IF1-H6 (human) (UniProt O15381).
Sequence of UniProt O15381 (O15381 other isoform, or with tags, fused parts or gaps limits assumed): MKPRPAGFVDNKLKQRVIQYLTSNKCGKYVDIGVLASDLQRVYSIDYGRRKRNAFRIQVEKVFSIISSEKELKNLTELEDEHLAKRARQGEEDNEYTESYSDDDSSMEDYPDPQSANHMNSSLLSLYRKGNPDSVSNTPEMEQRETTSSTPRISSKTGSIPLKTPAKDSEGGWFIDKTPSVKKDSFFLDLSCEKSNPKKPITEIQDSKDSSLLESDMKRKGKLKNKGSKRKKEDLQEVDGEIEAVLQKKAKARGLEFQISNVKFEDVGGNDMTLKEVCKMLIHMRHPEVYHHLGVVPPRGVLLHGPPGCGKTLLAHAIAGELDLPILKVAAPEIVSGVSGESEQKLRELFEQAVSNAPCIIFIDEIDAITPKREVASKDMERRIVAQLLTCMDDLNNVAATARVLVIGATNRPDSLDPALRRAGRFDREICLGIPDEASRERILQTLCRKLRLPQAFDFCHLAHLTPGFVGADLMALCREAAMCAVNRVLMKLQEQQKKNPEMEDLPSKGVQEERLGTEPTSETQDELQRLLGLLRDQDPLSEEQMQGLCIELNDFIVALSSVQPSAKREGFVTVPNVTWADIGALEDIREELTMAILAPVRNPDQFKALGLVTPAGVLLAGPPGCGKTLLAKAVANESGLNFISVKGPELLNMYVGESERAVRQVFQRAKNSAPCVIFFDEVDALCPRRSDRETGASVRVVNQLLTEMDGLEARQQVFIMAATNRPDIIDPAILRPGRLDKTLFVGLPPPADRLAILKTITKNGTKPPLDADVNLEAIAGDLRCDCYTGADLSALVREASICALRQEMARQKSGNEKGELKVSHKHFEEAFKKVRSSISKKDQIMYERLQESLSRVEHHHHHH

Sequence of UniProt Q07157 (Q07157 other isoform, or with tags, fused parts or gaps limits assumed): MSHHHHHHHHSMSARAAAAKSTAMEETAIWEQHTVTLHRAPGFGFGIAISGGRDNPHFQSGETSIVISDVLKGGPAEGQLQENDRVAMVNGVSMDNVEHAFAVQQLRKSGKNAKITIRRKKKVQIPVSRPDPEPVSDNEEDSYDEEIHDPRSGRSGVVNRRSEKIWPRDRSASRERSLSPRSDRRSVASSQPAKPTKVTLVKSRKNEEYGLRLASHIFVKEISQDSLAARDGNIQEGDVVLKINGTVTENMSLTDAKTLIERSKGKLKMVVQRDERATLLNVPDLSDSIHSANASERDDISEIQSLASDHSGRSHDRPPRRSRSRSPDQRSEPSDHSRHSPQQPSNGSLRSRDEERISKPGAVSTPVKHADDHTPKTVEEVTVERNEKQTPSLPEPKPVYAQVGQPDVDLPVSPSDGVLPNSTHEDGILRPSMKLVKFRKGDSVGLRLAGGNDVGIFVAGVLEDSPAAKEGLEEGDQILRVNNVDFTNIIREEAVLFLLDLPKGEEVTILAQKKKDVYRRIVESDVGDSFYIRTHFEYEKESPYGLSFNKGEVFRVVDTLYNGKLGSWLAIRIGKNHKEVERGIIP
Sequence of UniProt O95400 (O95400 other isoform, or with tags, fused parts or gaps limits assumed): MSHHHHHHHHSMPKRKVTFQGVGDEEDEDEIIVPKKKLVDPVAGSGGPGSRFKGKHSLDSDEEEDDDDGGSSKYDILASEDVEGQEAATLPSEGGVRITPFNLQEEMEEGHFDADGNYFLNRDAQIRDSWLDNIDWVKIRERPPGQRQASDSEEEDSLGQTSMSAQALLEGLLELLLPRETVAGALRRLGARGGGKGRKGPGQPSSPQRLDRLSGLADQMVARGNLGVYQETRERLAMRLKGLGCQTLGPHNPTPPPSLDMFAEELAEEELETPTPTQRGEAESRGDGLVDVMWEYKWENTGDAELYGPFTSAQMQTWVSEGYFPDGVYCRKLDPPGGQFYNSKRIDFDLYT

In the case of “anti-His-tag-AP (monoclonal anti-His-AP antibody produced in mouse, A5588, Sigma-Aldrich)”, the band intensity worked out at 101 in experiment [1], 111 with H8-CD2BP2[human] (human) and 15 in experiment [2].
